Measurements published in the supplement of paper PMC7877785.
± gives the uncertainty stated by the source.

Test: self-splicing fitness, log relative to wild type (ln ratio); higher = more splicing; Tetrahymena group I intron in knt gene, E. coli kanamycin selection, DiMSum; sequences stand for … in CUCUCU…GGAGGGAAAAGUUAUCAGGCAUGCACCUGGUAGCUAGUCUUUAAACCAAUAGAUUGCAUCGGUUUAAAAGGCAAGACCGUCAAAUUGCGGGAAAGGGGUCAACAGCCGUUCAGUACCAAGUCUCAGGGGAAACUUUGAGAUGGCCUUGCAAAGGGUAUGGUAAUAAGCUGACGGACAUGGUCCUAACCACGCAGCCAAGUCCUAAGUCAACAGAUCUUCUGUUGAUAUGGAUGCAGUUCACAGACUAAAUGUCGGUCGGGGAAGAUGUAUUCUUCUCAUAAGAUAUAGUCGGACCUCUCCUUAAUGGGAGCUAGCGGAUGAAGUGAUGCAACACUGGAGCCGCUGGGAACUAAUUUGUAUGCGAAAGUAUAUUGAUUAGUUUUGGAGUACUCGUGGUCG
How it was run: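 DiMSum derived fitness as the error-weighted combination of fold changes across replicates, kanamycin versus no kanamycin, normalised to wild type. E. coli BL21(DE3) held the library, which randomised all eight P1ex-region intron nucleotides within the knt kanamycin-resistance gene on pET-22b(+). Six replicate transformations grew overnight at 37°C or 30°C on LB agar with or without 25 μg/mL kanamycin, also containing 100 μg/mL carbenicillin, 50 μM IPTG and 0.2% rhamnose, and pooled colonies were amplicon-sequenced on an Illumina HiSeq 2500.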

| Sequence | self-splicing fitness (ln) (30 °C) | self-splicing fitness (ln) (37 °C) |
| --- | --- | --- |
| UAAGAGCAAUAUUACGCUUA | -3.19 ± 0.32 | -2.63 ± 0.35 |
| AGGUAGCAAUAUUACGCAGC | -3.808 ± 0.038 | -2.67 ± 0.046 |
| CUGGAGCAAUAUUACGUAGC |  | -2.38 ± 0.32 |
| CGGCAGCAAUAUUACGCGCA | -0.939 ± 0.097 | -0.247 ± 0.1 |
| GACAAGCAAUAUUACGUUAG | -3.84 ± 0.2 | -3.34 ± 0.19 |
| GACUAGCAAUAUUACGGCUU | -0.318 ± 0.099 | 0.0615 ± 0.14 |
| GUAGAGCAAUAUUACGUUUG | -2.91 ± 0.24 | -2.23 ± 0.29 |
| UACGAGCAAUAUUACGUCCG | -2.29 ± 0.13 | -1.25 ± 0.17 |
| GGGCAGCAAUAUUACGCGAC | -2.37 ± 0.13 | -2.17 ± 0.21 |
| GUCGAGCAAUAUUACGGAGU | -3.59 ± 0.19 | -0.791 ± 0.094 |
| AAUCAGCAAUAUUACGCUGU | -3.28 ± 0.14 | -1.59 ± 0.11 |
| AUGGAGCAAUAUUACGGACA | -3.23 ± 0.43 | -1.91 ± 0.2 |
| CUGUAGCAAUAUUACGGGUC | -4.47 ± 0.34 | -2.65 ± 0.26 |
| AGUGAGCAAUAUUACGCUAU | -3.19 ± 0.23 | -2.43 ± 0.42 |
| ACGAAGCAAUAUUACGGCUG | -0.78 ± 0.052 | -0.0127 ± 0.084 |
| UCUAAGCAAUAUUACGCAGG | -2.92 ± 0.23 | -2.36 ± 0.41 |
| GCUGAGCAAUAUUACGGGGC | -3.02 ± 0.24 | -3.85 ± 0.42 |
| CCUUAGCAAUAUUACGUCCC | -1.81 ± 0.5 |  |
| GUUGAGCAAUAUUACGCGUC | -1.59 ± 0.27 | -0.951 ± 0.34 |
| GUGCAGCAAUAUUACGAUGU | -0.56 ± 0.067 | -0.37 ± 0.073 |
| ACGAAGCAAUAUUACGGCAU | -0.981 ± 0.1 | 0.219 ± 0.11 |
| CAAUAGCAAUAUUACGUGCU |  | -2.65 ± 0.24 |
| GAGAAGCAAUAUUACGCAGG | -2.26 ± 0.16 | -2.91 ± 0.2 |
| CUCAAGCAAUAUUACGGUCU | -3.13 ± 0.16 | -3.56 ± 0.39 |

| Sequence | self-splicing fitness (ln) (30 °C) | self-splicing fitness (ln) (37 °C) |
| --- | --- | --- |
| CUCUAGCAAUAUUACGGUGU | -3 ± 0.19 | -2.63 ± 0.3 |
| UGGUAGCAAUAUUACGCCGG | -1.3 ± 0.12 | -0.73 ± 0.13 |
| CCAUAGCAAUAUUACGGAUG | -2.42 ± 0.11 | -1.43 ± 0.11 |
| AUUCAGCAAUAUUACGCGCC | -1.17 ± 0.15 | 0.194 ± 0.21 |
| GGCGAGCAAUAUUACGUGCG | -1.65 ± 0.11 | -0.955 ± 0.1 |
| GGAGAGCAAUAUUACGAGUA | -3.36 ± 0.41 | -2.48 ± 0.32 |
| UCCAAGCAAUAUUACGGAGG | -4.42 ± 0.27 | -2.81 ± 0.29 |
| UCCCAGCAAUAUUACGGCCG | -3.44 ± 0.27 | -2.02 ± 0.32 |
| GGGUAGCAAUAUUACGGGGU | -3.33 ± 0.32 | -3.06 ± 0.47 |
| UUUGAGCAAUAUUACGUGUU | -2.61 ± 0.32 | -3.3 ± 0.33 |
| CCGCAGCAAUAUUACGUGCU | -2.05 ± 0.27 |  |
| CUCAAGCAAUAUUACGGCAA | -3.15 ± 0.32 | -1.32 ± 0.24 |
| UCUCAGCAAUAUUACGCUUC | -2.92 ± 0.21 | -2.33 ± 0.28 |
| UGUCAGCAAUAUUACGAGCA | -0.272 ± 0.12 | -0.347 ± 0.13 |
| CCGUAGCAAUAUUACGAAUG | -0.463 ± 0.099 | 0.0216 ± 0.11 |
| GAGAAGCAAUAUUACGGCGU | -0.403 ± 0.12 | 0.0558 ± 0.16 |
| AAUUAGCAAUAUUACGGUUA | -0.622 ± 0.11 | -0.183 ± 0.099 |
| UCAAAGCAAUAUUACGAGAA | -3.28 ± 0.34 | -1.48 ± 0.25 |
| CGCAAGCAAUAUUACGGCAC | -2.32 ± 0.21 | -1.29 ± 0.3 |
| GCCCAGCAAUAUUACGCGAA | -2.09 ± 0.071 | -0.554 ± 0.072 |
| GGUCAGCAAUAUUACGAUAC | -1.32 ± 0.16 | -1.59 ± 0.19 |
| UUUUAGCAAUAUUACGGCGU | -1.89 ± 0.21 | -0.915 ± 0.45 |
| GAAUAGCAAUAUUACGAUAU | -1.43 ± 0.068 | -0.744 ± 0.085 |
| GGACAGCAAUAUUACGCAGC | -1.1 ± 0.083 | -0.558 ± 0.085 |
